Data: patent US12099068B2, “Biomarkers for graft-versus-host disease” (Incyte Corporation, priority 2018, dated 2024)

B1: NQO2 (protein, UniProt P16083 1-231, looked up)
Ribosyldihydronicotinamide …: MAGKKVLIVYAHQEPKSFNGSLKNVAVDELSRQGCTVTVSDLYAMNLEPRATDKDITGTLSNPEVFNYGVETHEAYKQRSLASDITDEQKKVREADLVIFQFPLYWFSVPAILKGWMDRVLCQGFAFDIPGFYDSGLLQGKLALLSVTTGGTAEMYTKTGVNGDSRYFLWPLQHGTLHFCGFKVLAPQISFAPEIASEEERKGMVAAWSQRLQTIWKEEPIPCTAHWHFGQ
B2: SIGLEC10 (protein, UniProt Q96LC7 17-697, looked up)
Sialic acid-binding Ig-like …: MDGRFWIRVQESVMVPEGLCISVPCSFSYPRQDWTGSTPAYGYWFKAVTETTKGAPVATNHQSREVEMSTRGRFQLTGDPAKGNCSLVIRDAQMQDESQYFFRVERGSYVRYNFMNDGFFLKVTALTQKPDVYIPETLEPGQPVTVICVFNWAFEECPPPSFSWTGAALSSQGTKPTTSHFSVLSFTPRPQDHNTDLTCHVDFSRKGVSAQRTVRLRVAYAPRDLVISISRDNTPALEPQPQGNVPYLEAQKGQFLRLLCAADSQPPATLSWVLQNRVLSSSHPWGPRPLGLELPGVKAGDSGRYTCRAENRLGSQQRALDLSVQYPPENLRVMVSQANRTVLENLGNGTSLPVLEGQSLCLVCVTHSSPPARLSWTQRGQVLSPSQPSDPGVLELPRVQVEHEGEFTCHARHPLGSQHVSLSLSVHYSPKLLGPSCSWEAEGLHCSCSSQASPAPSLRWWLGEELLEGNSSQDSFEVTPSSAGPWANSSLSLHGGLSSGLRLRCEAWNVHGAQSGSILQLPDKKGLISTAFSNGAFLGIGITALLFLCLALIIMKILPKRRTQTETPRPRFSRHSTILDYINVVPTAGPLAQKRNQKATPNSPRTPLPPGAPSPESKKNQKKQYQLPSFPEPKSSTQAPESQESQEELHYATLNFPGVRPRPEARMPKGTQADYAEVKFQ
B3: PRTG (protein, UniProt Q2VWP7 36-1150, looked up)
Protogenin: FSELSFVKEPQDVTVTRKDPVVLDCQAHGEVPIKVTWLKNGAKMSENKRIEVLSNGSLYISEVEGRRGEQSDEGFYQCLAMNKYGAILSQKAHLALSTISAFEVQPISTEVHEGGVARFACKISSHPPAVITWEFNRTTLPMTMDRITALPTGVLQIYDVSQRDSGNYRCIAATVAHRRKSMEASLTVIPAKESKSFHTPTIIAGPQNITTSLHQTVVLECMATGNPKPIISWSRLDHKSIDVFNTRVLGNGNLMISDVRLQHAGVYVCRATTPGTRNFTVAMATLTVLAPPSFVEWPESLTRPRAGTARFVCQAEGIPSPKMSWLKNGRKIHSNGRIKMYNSKLVINQIIPEDDAIYQCMAENSQGSILSRARLTVVMSEDRPSAPYNVHAETMSSSAILLAWERPLYNSDKVIAYSVHYMKAEGLNNEEYQVVIGNDTTHYIIDDLEPASNYTFYIVAYMPMGASQMSDHVTQNTLEDVPLRPPEISLTSRSPTDILISWLPIPAKYRRGQVVLYRLSFRLSTENSIQVLELPGTTHEYLLEGLKPDSVYLVRITAATRVGLGESSVWTSHRTPKATSVKAPKSPELHLEPLNCTTISVRWQQDVEDTAAIQGYKLYYKEEGQQENGPIFLDTKDLLYTLSGLDPRRKYHVRLLAYNNIDDGYQADQTVSTPGCVSVRDRMVPPPPPPHHLYAKANTSSSIFLHWRRPAFTAAQIINYTIRCNPVGLQNASLVLYLQTSETHMLVQGLEPNTKYEFAVRLHVDQLSSPWSPVVYHSTLPEAPAGPPVGVKVTLIEDDTALVSWKPPDGPETVVTRYTILYASRKAWIAGEWQVLHREGAITMALLENLVAGNVYIVKISASNEVGEGPFSNSVELAVLPKETSESNQRPKRLDSADAKVYSGYYHLDQKSMTGIAVGVGIALTCILICVLILIYRSKARKSSASKTAQNGTQQLPRTSASLASGNEVGKNLEGAVGNEESLMPMIMPNSFIDAKGGTDLIINSYGPIIKNNSKKKWFFFQDSKKIQVEQPQRRFTPAVCFYQPGTTVLISDEDSPSSPGQTTSFSRPFGVAADTEHSANSEGSHETGDSGRFSHESNDEIHLSSVISTTPPNL

System: plasma proteins
Assay: Plasma proteins modulated between baseline and day 28 in responders (CR, VGPR, PR; n = 19), Example 6 (Table 13)
Assay type: in vivo, human
Conditions: plasma protein (OLINK NPX); responders (CR, VGPR, PR; n = 19); itacitinib 200 mg or 300 mg QD with corticosteroids; day 28 vs baseline
Method in brief: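 Longitudinal comparison, day 28 versus baseline, with steroid-naive (N=10) and steroid-refractory (N=18) patients combined. Proteins measured by OLINK proximity extension, log2 normalized protein expression. Differences tested by t tests, ANOVA, Pearson correlation, P<0.05 significant.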

Row | Molecule | Fold Change, Increased Expression from Baseline to Day 28 | Fold Change, Decreased Expression from Baseline to Day 28
1 | B1 | 1.0895 | 
2 | B2 |  | −1.4974
3 | B3 | 1.1026 | 
